Molecular target: H2A.Z variant containing recombinant nucleosomes (UniProt P0C0S5)
Test: pull-down; nucleosomes (2.5 μg) pre-bound to Dynabeads M-280 streptavidin; CFDP1 protein (10 μm) added; 4 h at 4°C; 20 mM Hepes pH 8.0, 150 mM NaCl, 0.2 mM EDTA, 20% glycerol, 0.1% NP40, 1 mM DTT; wash with 200 mM NaCl; immunoblot, normalized to H4

HIS tagged full-length CFDP1 protein (mouse craniofacial development protein 1) (from UniProt O88271 1-295) (natural protein)
fold binding over H2A canonical nucleosomes (normalized to H4 levels): 3.3 fold

Source: PMC11023358
